Read-outs that look alike come from different tables or passages of the source.
T1: His-tagged full-length N-MYC (human, UniProt P04198 1-464)
T1 chain: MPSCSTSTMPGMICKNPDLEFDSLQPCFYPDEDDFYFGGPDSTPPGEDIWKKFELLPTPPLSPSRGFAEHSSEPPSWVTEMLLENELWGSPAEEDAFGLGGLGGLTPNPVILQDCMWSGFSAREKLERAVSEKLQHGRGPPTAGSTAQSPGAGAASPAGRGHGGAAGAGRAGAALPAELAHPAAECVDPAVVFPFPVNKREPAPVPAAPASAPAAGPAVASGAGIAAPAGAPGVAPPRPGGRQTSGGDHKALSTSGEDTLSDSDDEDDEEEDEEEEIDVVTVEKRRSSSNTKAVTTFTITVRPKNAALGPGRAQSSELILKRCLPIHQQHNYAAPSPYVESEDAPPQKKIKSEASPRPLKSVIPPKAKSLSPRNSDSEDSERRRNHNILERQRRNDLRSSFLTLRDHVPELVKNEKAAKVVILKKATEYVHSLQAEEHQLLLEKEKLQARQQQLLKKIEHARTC


Experiments:
[1] = target: T2, His-tagged full-length c-MYC (human, UniProt P01106-1 1-439); test: SPR
T2 sequence (P01106 16-454): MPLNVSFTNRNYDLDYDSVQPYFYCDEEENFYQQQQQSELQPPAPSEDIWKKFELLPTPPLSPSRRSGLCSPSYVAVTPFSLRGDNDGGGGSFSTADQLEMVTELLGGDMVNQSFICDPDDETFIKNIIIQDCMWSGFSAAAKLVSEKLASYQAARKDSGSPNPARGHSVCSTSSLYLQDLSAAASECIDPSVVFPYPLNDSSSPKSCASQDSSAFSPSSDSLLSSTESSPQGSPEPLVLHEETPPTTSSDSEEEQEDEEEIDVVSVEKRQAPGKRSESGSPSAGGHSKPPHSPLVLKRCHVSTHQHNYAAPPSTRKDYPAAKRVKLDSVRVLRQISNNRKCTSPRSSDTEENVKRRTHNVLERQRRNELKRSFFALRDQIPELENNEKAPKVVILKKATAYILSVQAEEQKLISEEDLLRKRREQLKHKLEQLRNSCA

[2] = target: T2, His-tagged full-length c-MYC; test: SPR; remark: listed apart in the source
[3] = target: T1, His-tagged full-length N-MYC; test: SPR
His-tagged MAX [4] = target: T3, His-tagged MAX (human, UniProt P61244 1-160); test: SPR; repeat
T3 sequence (P61244 whole entry): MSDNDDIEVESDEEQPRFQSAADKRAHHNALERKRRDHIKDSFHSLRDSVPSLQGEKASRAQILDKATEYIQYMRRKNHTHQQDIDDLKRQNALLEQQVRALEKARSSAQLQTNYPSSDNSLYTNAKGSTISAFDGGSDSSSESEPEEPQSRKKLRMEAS

His-tagged MAX [5] = target: T3, His-tagged MAX; test: SPR
[6] = target: His-tagged C-terminal c-MYC (human); test: SPR
His-tagged C-terminal c-MYC (human), sequence (chain, as listed by the source): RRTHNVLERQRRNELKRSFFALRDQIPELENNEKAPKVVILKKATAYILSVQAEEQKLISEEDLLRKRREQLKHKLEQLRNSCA

Binder	Kd [1]	Kd [2]	Kd [3]	Kd (His-tagged MAX [4])	Kd (His-tagged MAX [5])	Kd [6]
Lon AAA+ domain peptide (aa 241-584) (domain or fragment) LGEMDDAPDENEALKRKIDAAKMPKEAKEKAEAELQKLKMMSPMSAEATVVRGYIDWMVQVPWNARSKVKKDLRQAQEILDTDHYGLERVKDRILEYLAVQSRVNKIKGPILCLVGPPGVGKTSLGQSIAKATGRKYVRMALGGVRDEAEIRGHRRTYIGSMPGKLIQKMAKVGVKNPLFLLDEIDKMSSDMRGDPASALLEVLDPEQNVAFSDHYLEVDYDLSDVMFVATSNSMNIPAPLLDRMEVIRLSGYTEDEKLNIAKRHLLPKQIERNALKKGELTVDDSAIIGIIRYYTREAGVRGLEREISKLCRKAVKQLLLDKSLKHIEINGDNLHDYLGVQRF	0.534 µM	–	–	–	–	–
Lon peptidase domain peptide (aa 581-778) (domain or fragment) VQRFDYGRADNENRVGQVTGLAWTEVGGDLLTIETACVPGKGKLTYTGSLGEVMQESIQAALTVVRARAEKLGINPDFYEKRDIHVHVPEGATPKDGPSAGIAMCTALVSCLTGNPVRADVAMTGEITLRGQVLPIGGLKEKLLAAHRGGIKTVLIPFENKRDLEEIPDNVIADLDIHPVKRIEEVLTLALQNEPSGM	0.849 µM	–	–	–	–	–
Lon N-terminal domain peptide (aa 1-245) (domain or fragment) MNPERSERIEIPVLPLRDVVVYPHMVIPLFVGREKSIRCLEAAMDHDKKIMLVAQKEASTDEPGVNDLFTVGTVASILQMLKLPDGTVKVLVEGLQRARISALSDNGEHFSAKAEYLESPTIDEREQEVLVRTAISQFEGYIKLNKKIPPEVLTSLNSIDDPARLADTIAAHMPLKLADKQSVLEMSDVNERLEYLMAMMESEIDLLQVEKRIRNRVKKQMEKSQREYYLNEQMKAIQKELGEMD	–	0.462 µM	0.402 µM	1.69 µM	0.294 µM	–
Lon N-terminal domain peptide (aa 1-245) (domain or fragment, His-tag omitted. The paper does not print the limits of Origene TP762404. Limits follow the paper's modelled C-terminal part, c-MYC aa 356-439 in 439-aa numbering, shifted by +15 to the 454-aa entry (bHLH-leucine zipper to the C-terminus). The bought construct may start earlier.) MNPERSERIEIPVLPLRDVVVYPHMVIPLFVGREKSIRCLEAAMDHDKKIMLVAQKEASTDEPGVNDLFTVGTVASILQMLKLPDGTVKVLVEGLQRARISALSDNGEHFSAKAEYLESPTIDEREQEVLVRTAISQFEGYIKLNKKIPPEVLTSLNSIDDPARLADTIAAHMPLKLADKQSVLEMSDVNERLEYLMAMMESEIDLLQVEKRIRNRVKKQMEKSQREYYLNEQMKAIQKELGEMD	–	–	–	–	–	0.495 µM
recombinant Escherichia coli Lon protease (aa 1-778) (enzyme, His-tag omitted. The paper does not print the limits of Origene TP762404. Limits follow the paper's modelled C-terminal part, c-MYC aa 356-439 in 439-aa numbering, shifted by +15 to the 454-aa entry (bHLH-leucine zipper to the C-terminus). The bought construct may start earlier.) MNPERSERIEIPVLPLRDVVVYPHMVIPLFVGREKSIRCLEAAMDHDKKIMLVAQKEASTDEPGVNDLFTVGTVASILQMLKLPDGTVKVLVEGLQRARISALSDNGEHFSAKAEYLESPTIDEREQEVLVRTAISQFEGYIKLNKKIPPEVLTSLNSIDDPARLADTIAAHMPLKLADKQSVLEMSDVNERLEYLMAMMESEIDLLQVEKRIRNRVKKQMEKSQREYYLNEQMKAIQKELGEMDDAPDENEALKRKIDAAKMPKEAKEKAEAELQKLKMMSPMSAEATVVRGYIDWMVQVPWNARSKVKKDLRQAQEILDTDHYGLERVKDRILEYLAVQSRVNKIKGPILCLVGPPGVGKTSLGQSIAKATGRKYVRMALGGVRDEAEIRGHRRTYIGSMPGKLIQKMAKVGVKNPLFLLDEIDKMSSDMRGDPASALLEVLDPEQNVAFSDHYLEVDYDLSDVMFVATSNSMNIPAPLLDRMEVIRLSGYTEDEKLNIAKRHLLPKQIERNALKKGELTVDDSAIIGIIRYYTREAGVRGLEREISKLCRKAVKQLLLDKSLKHIEINGDNLHDYLGVQRFDYGRADNENRVGQVTGLAWTEVGGDLLTIETACVPGKGKLTYTGSLGEVMQESIQAALTVVRARAEKLGINPDFYEKRDIHVHVPEGATPKDGPSAGIAMCTALVSCLTGNPVRADVAMTGEITLRGQVLPIGGLKEKLLAAHRGGIKTVLIPFENKRDLEEIPDNVIADLDIHPVKRIEEVLTLALQNEPSGM	–	–	–	–	–	0.398 µM
recombinant Escherichia coli Lon protease (aa 1-778) (enzyme) MNPERSERIEIPVLPLRDVVVYPHMVIPLFVGREKSIRCLEAAMDHDKKIMLVAQKEASTDEPGVNDLFTVGTVASILQMLKLPDGTVKVLVEGLQRARISALSDNGEHFSAKAEYLESPTIDEREQEVLVRTAISQFEGYIKLNKKIPPEVLTSLNSIDDPARLADTIAAHMPLKLADKQSVLEMSDVNERLEYLMAMMESEIDLLQVEKRIRNRVKKQMEKSQREYYLNEQMKAIQKELGEMDDAPDENEALKRKIDAAKMPKEAKEKAEAELQKLKMMSPMSAEATVVRGYIDWMVQVPWNARSKVKKDLRQAQEILDTDHYGLERVKDRILEYLAVQSRVNKIKGPILCLVGPPGVGKTSLGQSIAKATGRKYVRMALGGVRDEAEIRGHRRTYIGSMPGKLIQKMAKVGVKNPLFLLDEIDKMSSDMRGDPASALLEVLDPEQNVAFSDHYLEVDYDLSDVMFVATSNSMNIPAPLLDRMEVIRLSGYTEDEKLNIAKRHLLPKQIERNALKKGELTVDDSAIIGIIRYYTREAGVRGLEREISKLCRKAVKQLLLDKSLKHIEINGDNLHDYLGVQRFDYGRADNENRVGQVTGLAWTEVGGDLLTIETACVPGKGKLTYTGSLGEVMQESIQAALTVVRARAEKLGINPDFYEKRDIHVHVPEGATPKDGPSAGIAMCTALVSCLTGNPVRADVAMTGEITLRGQVLPIGGLKEKLLAAHRGGIKTVLIPFENKRDLEEIPDNVIADLDIHPVKRIEEVLTLALQNEPSGM	–	0.382 µM	0.332 µM	0.174 µM	0.164 µM	–
